The source of these data is the supplement of paper PMC10567573.

± gives the standard deviation.

The data set in a line: protein stability index of a GFP-peptide fusion (GPS, HEK-293T) (PSI 1-6); higher = more stable.
[1] abbreviates: treatment: DMSO, c terminus: a fixed tail appended.
Setting [2] is: treatment: MLN4924 1 uM, 8 h, c terminus: a fixed tail appended.
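Further: 24-mer peptide tiles fused after GFP, lentivirally expressed, FACS-sorted into six equal bins by GFP/DsRed ratio, decoded by Illumina sequencing, PSI is the read-weighted mean bin number.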

As for SDHCITSSDMMDSSSFSNLDLSEE [VDR], the protein stability index came out at 5.48 ± 0.13 under setting [1] and 5.42 ± 0.16 under setting [2].

As for FKYINTVISCTIFIVGMVGNATLL [EDNRA], the protein stability index under setting [1] turned out to be 3.56 ± 0.57 and the protein stability index under setting [2] came to 2.89 ± 0.61.

On to VKRRRTASLSNQECQLYPRRSQQQ [SNURF], for which the protein stability index was found to be 4.43 ± 0.18 under setting [1] and 4.45 ± 0.19 under setting [2].

On to RAPSRRHGVRAKVQPQARKKEMEM [CPN1], for which the protein stability index by setting is: under setting [1], 4.39 ± 0.26; under setting [2], 4.64 ± 0.082.

With SSSSGPGHGEPDVLKDELQLYGDA [TMEM40], the protein stability index is 5.3 ± 0.15 under setting [1] and 5.32 ± 0.19 under setting [2].

Regarding KKALSGLSSRWKNWWIRGILTLTM [CDS1], the protein stability index was determined as 2.14 ± 0.091 under setting [1] and 2.22 ± 0.19 under setting [2].

In the case of PPSRAPTAAPPPPPPSRPSVAVPP [WASL], the protein stability index came out at 4.77 ± 0.21 under setting [1] and 4.86 ± 0.21 under setting [2].

For the sequence DISPPIFRRGEKLRVISDEGGWWK [SLA], the protein stability index was 3.02 ± 0.71 under setting [1] and 2.87 ± 0.42 under setting [2].

With RRVWSPPRVHKVEMGFGGGGGAN [ZBTB22], the protein stability index (treatment: DMSO, c terminus: native) is 4.13 ± 0.3 and the protein stability index (treatment: MLN4924 1 uM, 8 h, c terminus: native) is 3.92 ± 0.14.

In the case of RMLQREGCFRSQGASLRLAVEDGL [M1AP], the protein stability index was 3.1 ± 0.22 under setting [1] and 2.94 ± 0.14 under setting [2].

As for YMDRFTVAGVLPDIEQFFNIGDSS [SPNS1], the protein stability index reads like this: under setting [1], 2.71 ± 0.34; under setting [2], 2.99 ± 0.18.

As to YFLLCDVLPEDRILREELQKQRLR [ZNF277], the protein stability index runs as follows: under setting [1], 2.37 ± 0.3; under setting [2], 2.28 ± 0.54.

Turning to VLSNMEKLFCIPVHGIRSVGTAAV [IMPA1], the protein stability index under setting [1] turned out to be 2.09 ± 0.47 and the protein stability index under setting [2] came out at 2.12 ± 0.059.

IYSTDLHKLDLNTREWTQLKPNNL [KLHDC10]: the protein stability index under setting [1] is 2.65 ± 0.18 and the protein stability index under setting [2] is 2.81 ± 0.15.

In turn, GDEISIKKKNTNKQEMGTYLRFIV [ZMYND11] displayed a protein stability index under setting [1] of 2.12 ± 0.087 and a protein stability index under setting [2] of 2.12 ± 0.24.

As for NSHQDFWTVWSGNRASLYSFPEPE [PRAME], the protein stability index runs as follows: under setting [1], 2.49 ± 0.19; under setting [2], 2.67 ± 0.38.

In the case of FWPAKVMQKEDNQVDVRFFGHHHQ [ZMYND11], the protein stability index is, setting by setting: under setting [1], 2.71 ± 0.52; under setting [2], 2.47 ± 0.18.

KEETNHSEMAEDLCKIGSERSLVL [IKZF1]: the protein stability index by setting is: under setting [1], 4.69 ± 0.31; under setting [2], 4.86 ± 0.28.

For the sequence LIKKYSDHLENVSKLVESGIQFMD [TRIM55], the protein stability index was determined as 2.27 ± 0.18 under setting [1] and 2.66 ± 0.2 under setting [2].

In turn, PQKSYFIRLYGLQAGRLLWEQELY [WAS] showed a protein stability index under setting [1] of 2.28 ± 0.32 and a protein stability index under setting [2] of 2.15 ± 0.19.

With TPHTPKSLLSKARGIDSSSVKLRG [WEE1], the protein stability index is, setting by setting: under setting [1], 4.26 ± 0.54; under setting [2], 4.08 ± 0.28.

With HPMYRRLVHSAVDVPTIQEKVNEG [ZMYND11], the protein stability index is 4.11 ± 0.36 under setting [1] and 4.3 ± 0.17 under setting [2].

Regarding TFESPADAKDAARDMNGKSLDGKA [RBMX], the protein stability index reads like this: under setting [1], 5.39 ± 0.3; under setting [2], 5.55 ± 0.12.

MWYPEIKHFCPRTPVILVGCQLDL [RHOBTB1]: the protein stability index was 2.91 ± 0.57 under setting [1] and 2.6 ± 0.65 under setting [2].

With RVEESALRALREKLFAHSSDLLSE [PPEF2], the protein stability index was determined as 2.96 ± 0.49 under setting [1] and 3.27 ± 0.32 under setting [2].

On to SESPGSLSEVLAQPQGALAPPNCE [DNAAF3], for which the protein stability index is, setting by setting: under setting [1], 5.44 ± 0.1; under setting [2], 5.17 ± 0.17.

In the case of HLMPFRQHCRQSLASRIRSNKKML [KLHL14], the protein stability index by setting is: under setting [1], 2.39 ± 0.11; under setting [2], 2.34 ± 0.1.

As to LKSKAEAEALYQTKFQELQLAAGR [KRT71], the protein stability index was found to be 3.73 ± 0.22 under setting [1] and 3.85 ± 0.41 under setting [2].

As for NLLFKPPVESHIQKNKKILKSAKD [KMT2E], the protein stability index runs as follows: under setting [1], 3.61 ± 0.099; under setting [2], 3.6 ± 0.38.

The sequence ERDRISTRRSSYEDSSLPSINALL [HNF4A] came in with a protein stability index under setting [1] of 3.79 ± 0.097 and a protein stability index under setting [2] of 3.84 ± 0.49.

In the case of NIVNLLTTCSTPLLNSPPSFVCWS [AUP1], the protein stability index runs as follows: under setting [1], 3.2 ± 0.56; under setting [2], 2.78 ± 0.47.

As to FQLPERGSRLCLYEDGTELTEDYF [DFFB], the protein stability index under setting [1] was 3.71 ± 0.44 and the protein stability index under setting [2] turned out to be 3.7 ± 0.47.

Turning to PAPTTTTATREEASTSLPTKPTQG [CLPTM1], the protein stability index is, setting by setting: under setting [1], 5.54 ± 0.19; under setting [2], 5.57 ± 0.14.

As to FYMFAWTHVTLLITVTQSHLVIQN [CDS1], the protein stability index reads like this: under setting [1], 3.01 ± 0.38; under setting [2], 3 ± 0.3.

ESRQTEVVIRDIDERAMELLIDFA [KLHL20]: the protein stability index under setting [1] was determined as 2.9 ± 0.095 and the protein stability index under setting [2] came to 2.96 ± 0.24.

Consider VTGMELEFKRLASSKAHTSRFISA [PTPRD], for which the protein stability index reads like this: under setting [1], 2.71 ± 0.33; under setting [2], 2.81 ± 0.4.

As for SAKDGGPQPPDAPQLVSSAREGSS [PLEKHN1], the protein stability index runs as follows: under setting [1], 5.49 ± 0.19; under setting [2], 5.39 ± 0.17.

RPLARPIKPNEILPPEKGREVAKE [RHOBTB2]: the protein stability index is, setting by setting: under setting [1], 4.91 ± 0.16; under setting [2], 4.68 ± 0.66.

For MKAAVDLKPTLTIIKTEKVDLELF [ETS1], the protein stability index reads like this: under setting [1], 2.46 ± 0.35; under setting [2], 2.55 ± 0.32.

Regarding SMEVFTHYDLLNLNGTKVAEGHKA [LOXL2], the protein stability index under setting [1] was 4.39 ± 0.16 and the protein stability index under setting [2] came to 3.85 ± 0.42.

For the sequence CGWPRGKDAPCYESDTDIYETVAA [DRICH1], the protein stability index amounted to 3.18 ± 0.23 under setting [1] and 3.31 ± 0.27 under setting [2].

Regarding DQEQGSSFQMSEGSEAAVIPLDLG [FAM189A2], the protein stability index stood at 5.34 ± 0.35 under setting [1] and 5.48 ± 0.17 under setting [2].

As to RENEELSARYLSQCQEAEQARAEL [FBF1], the protein stability index was found to be 5.38 ± 0.16 under setting [1] and 5.34 ± 0.09 under setting [2].

On to YMSQVLEKEMKAQEQRLGIRISMS [GMPPB], for which the protein stability index under setting [1] stood at 2.38 ± 0.094 and the protein stability index under setting [2] stood at 2.74 ± 0.42.

As to NPTRQDESIQRIAVHLCNALVCQV [ZER1], the protein stability index turned out to be 2.48 ± 0.74 under setting [1] and 2.27 ± 0.16 under setting [2].

In the case of LKYENELALRQGVEADINGLRRVL [KRT15], the protein stability index reads like this: under setting [1], 3.35 ± 0.23; under setting [2], 3.6 ± 0.18.

As for DLFEKKGYTFDYAYDWVGRPIPTP [CSNK1G1], the protein stability index runs as follows: under setting [1], 2.26 ± 0.58; under setting [2], 2.37 ± 0.29.

Consider GSSNVGINRWRFLLQCLEDLDANL [CRY1], for which the protein stability index amounted to 2.48 ± 0.52 under setting [1] and 2.4 ± 0.13 under setting [2].

As to KILVGNRLHLAFKRQVPTEQAQAY [RAB40B], the protein stability index by setting is: under setting [1], 2.07 ± 0.16; under setting [2], 2.5 ± 0.23.

Take QWIEVDARRLTRFTGVITQGRNSL [CPXM2]: the protein stability index is 2.91 ± 0.6 under setting [1] and 2.52 ± 0.17 under setting [2].
